According to patent US20260207704A1, “STAPLED PEPTIDES AND METHODS THEREOF” (priority 2022, published 2026):
Blank lines part the entries; values can stand above or below the molecule they belong to. *1 amine or outer side, *2 acyl side, *3 side chain or, on linkers, in order; H or OH if unused. Bridges are numbered along the chain shown (N, C = ends). Primed or numbered codes have the meaning given here. [ ]: non-standard residue; d: D form. PyrS2(6) = (S)-3-amino-1-((pent-4-en-1-yloxy)carbonyl)pyrrolidine-3-carboxylic acid, stapled with another olefin-containing amino acid residue through the olefin group, O=C(OCCCC=[*:3])N1CC[C@@](N[*:1])(C(=O)[*:2])C1; B5(4) = 2-amino-2-(pent-4-en-1-yl)hept-6-enoic acid, stapled through each of its two olefin groups with other olefin-containing amino acid residues, O=C(C(CCCC=[*:3])(CCCC=[*:4])N[*:1])[*:2]; PyrS2″ = (S)-3-amino-1-((pent-4-en-1-yloxy)carbonyl)pyrrolidine-3-carboxylic acid (olefin stapling residue), C=CCCCOC(=O)N1CC[C@@](N[*:1])(C(=O)[*:2])C1; PyrS2(3) = (S)-3-amino-1-((pent-4-en-1-yloxy)carbonyl)pyrrolidine-3-carboxylic acid, olefin residue, C=CCCCOC(=O)N1CC[C@@](N[*:1])(C(=O)[*:2])C1; B5(3) = 2-amino-2-(pent-4-en-1-yl)hept-6-enoic acid, two olefin arms, C=CCCCC(CCCC=C)(N[*:1])C(=O)[*:2]; 2F3MeF(3) = aromatic amino acid residue, Cc1cccc(C[C@H](N[*:1])C(=O)[*:2])c1F; Phe(3-COOH) = N[C@@H](Cc1cccc(C(=O)O)c1)C(=O)O; 2F3MeF = Cc1cccc(C[C@H](N[*:1])C(=O)[*:2])c1F; Phe(2-Cl) = N[C@@H](Cc1ccccc1Cl)C(=O)O; Bta = N[C@@H](Cc1csc2ccccc12)C(=O)O; αAllylPro = C=CC[C@@]1(C(=O)O)CCCN1; BztA = aromatic amino acid residue; 4mampiperidine = not defined here; tBuAla = CC(C)(C)C[C@H](N)C(=O)O; Biphen33COOH = not defined here; 3Thi = N[C@@H](Cc1ccsc1)C(=O)O; Cha = N[C@@H](CC1CCCCC1)C(=O)O; PyrS2(4) = not defined here; hSer = N[C@@H](CCO)C(=O)O; TfeGA = not defined here; GlnR = not defined here; PL3 = not defined here; B5 = not defined here

Key:
[1] = tested on: DLD1 reporter; experiment: reporter assay (DLD1 reporter assay); format: cell-based; settings: read-out: DLD1 4% Abs IC50; DLD1 4%
From the text: Various technologies can be utilized for characterizing and/or assessing provided technologies (e.g., agents (e.g., various peptides), compositions, methods, etc.) in accordance with the present disclosure. As described herein, in some embodiments, a useful technology is or comprises fluorescence polarization. In some embodiments, a useful technology assesses LogP or LogD. In some embodiments, a useful technology is or comprises a CHI LogD assay. In some embodiments, a useful technology assesses solubility. In some embodiments, a useful technology is or comprises NanoBRET. In some embodiments, a useful technology is or comprises a reporter assay (e.g., DLD1 reporter assay). In some embodiments, a useful technology is or comprises alphascreen. Certain useful protocols are described in the Examples. Those skilled in the art appreciate that suitable adjustments may be made to such protocols, e.g., according to specific conditions, agents, purposes, etc.
Various technologies can be utilized to assess technologies of the present disclosure. For example, in some embodiments, solubility, LogD, interactions with targets, etc. of various agents such as stapled peptides were assessed using technologies described in WO 2022/261257 (e.g., those in its Examples). In some embodiments, solubility, shake flask LogD, and binding to beta-catenin were assessed. In some embodiments, an assay for assessing interactions, e.g., with beta-catenin, was fluorescence polarization as described in WO 2022/261257. In some embodiments, an assay was Nano-BRET target engagement assay that assessed beta-catenin/TCF4 engagement as described in WO 2022/261257. In some embodiments, an assay was a reporter assay as reported in Example 4 of WO 2022/261257. In some embodiments, an assay was a COLO320DM proliferation assay as reported in Example 4 of WO 2022/261257.

[2] = target: beta-catenin (human); experiment: fluorescence polarization; bin >50 nM
Chain of beta-catenin (human) (B6V8E6 146-665 limits assumed): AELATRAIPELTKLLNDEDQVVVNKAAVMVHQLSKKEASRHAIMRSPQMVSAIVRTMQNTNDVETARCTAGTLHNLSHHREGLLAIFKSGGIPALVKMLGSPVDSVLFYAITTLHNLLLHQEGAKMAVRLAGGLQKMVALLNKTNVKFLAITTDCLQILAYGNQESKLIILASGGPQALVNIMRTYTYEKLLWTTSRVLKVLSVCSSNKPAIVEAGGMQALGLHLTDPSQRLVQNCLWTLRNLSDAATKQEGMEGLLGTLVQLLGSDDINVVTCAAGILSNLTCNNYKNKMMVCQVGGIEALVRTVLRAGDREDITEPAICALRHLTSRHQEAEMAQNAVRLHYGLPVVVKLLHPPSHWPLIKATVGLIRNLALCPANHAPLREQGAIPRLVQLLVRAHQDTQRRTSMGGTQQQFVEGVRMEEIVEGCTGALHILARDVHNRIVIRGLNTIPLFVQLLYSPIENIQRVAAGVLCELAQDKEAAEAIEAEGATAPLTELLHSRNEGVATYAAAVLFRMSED

Molecule: CC(=O)N1CCC[C@]12CC=CCCCC1(CCCC=CCCCOC(=O)N3CC[C@@]4(C3)NC(=O)[C@H](Cc3cn(nn3)CCCC[C@@H](C(N)=O)NC(=O)[C@H](Cc3csc5ccccc35)NC(=O)[C@H](Cc3ccsc3)NC4=O)NC(=O)[C@H](Cc3ccccc3)NC(=O)[C@H](C)NC(=O)[C@H](C)NC(=O)[C@H](Cc3cccc(C(=O)O)c3)NC(=O)[C@H](CC(=O)O)NC1=O)NC(=O)[C@H](CC(C)(C)C)NC(=O)[C@H](CC(=O)O)NC2=O (stereo partly drawn) [I-24, Ac-PL3-Asp-Npg-B5-Asp-3COOHF-Ala-Ala-Phe-sAla*3-PyrS2-3Thi-BztA-TriAzLys*3-NH2]
IC50 [1]: 1000 to 5000 nM

Molecule: CC(=O)N1CCC[C@]12CC=CCCCC1(CCCC=CCCCOC(=O)N3CC[C@@]4(C3)NC(=O)[C@H](CCCCNC(=O)CC[C@@H](C(=O)N[C@@H](CC(C)C)C(=O)N[C@@H](CO)C(N)=O)NC(=O)[C@H](Cc3csc5ccccc35)NC(=O)[C@H](Cc3ccccc3C(F)(F)F)NC4=O)NC(=O)[C@H](Cc3ccccc3)NC(=O)[C@H](C)NC(=O)C3(CC3)NC(=O)[C@H](Cc3cccc(C(=O)O)c3)NC(=O)[C@H](CC(=O)O)NC1=O)NC(=O)[C@H](CC(C)(C)C)NC(=O)[C@H](CC(=O)O)NC2=O (relative stereo) [I-139, Ac-PL3-Asp-Npg-B5-Asp-3COOHF-Cpg-Ala-Phe-Lys*3-PyrS2-2F3MeF-BztA-GlnR*3-Leu-Ser-NH2]
IC50 [1]: ≤ 1000 nM

Molecule: CC(=O)N1CCC[C@]12CC=CCCCC1(CCCC=CCCCOC(=O)N3CC[C@@]4(C3)NC(=O)[C@H](CCCCNC(=O)CC[C@@H](C(=O)N[C@@H](CC(C)C)C(N)=O)NC(=O)[C@H](Cc3csc5ccccc35)NC(=O)[C@H](Cc3ccccc3C(F)(F)F)NC4=O)NC(=O)[C@H](Cc3ccccc3)NC(=O)[C@H](C)NC(=O)[C@H](C)NC(=O)[C@H](CN(CC(=O)O)CC(F)(F)F)NC(=O)[C@H](CC(=O)O)NC1=O)NC(=O)[C@H](CC(C)(C)C)NC(=O)[C@H](CC(=O)O)NC2=O (relative stereo) [I-128, Ac-PL3-Asp-Npg-B5-Asp-TfeGA-Ala-Ala-Phe-Lys*3-PyrS2-2F3MeF-BztA-GlnR*3-Leu-NH2]
IC50 [1]: 1000 to 5000 nM

B10: I-85 (peptide)
peptide: Ac-[PL3][hSer][tBuAla][B5]D[Phe(3-COOH)]SAFK[PyrS2″][3Thi][BztA][GlnR]A-NH2
modifications: staple 1-4 (inferred); bridge 10-14; not fully specified (residue 10, bridges); printed as Ac-PL3-Hse-Npg-B5-Asp-3COOHF-Ser-Ala-Phe-Lys*3-PyrS2-3Thi-BztA-GlnR*3-Ala-NH2; reading uncertain; also: Lys10 and GlnR14 marked *3
IC50 [2]: < 200 nM

B11: I-50 (peptide)
peptide: Ac-[αAllylPro]D[tBuAla][B5(4)]D[Phe(3-COOH)]K(isophthalate)AFL[PyrS2(6)][Phe(2-Cl)][Bta]K-NH2
modifications: not fully specified (residue 6, bridges); printed as Ac-PL3-Asp-Npg-B5-Asp-3COOHF-[isophthalate]-Lys-Ala-Phe-Leu-PyrS2-2ClF-BztA-Lys-NH2; also: isophthalate on Lys7 side chain is a staple, partner not given here
IC50 [2]: < 200 nM

B12: I-53 (peptide)
peptide: Ac-[αAllylPro]D[tBuAla][B5(3)]D[Phe(3-COOH)]K(diphenate)AFL[PyrS2(3)][Phe(2-Cl)][Bta]K-NH2
modifications: not fully specified (residue 6, bridges); printed as Ac-PL3-Asp-Npg-B5-Asp-3COOHF-[diphenate]Lys-Ala-Phe-Leu-PyrS2-2ClF-BztA-Lys-NH2
IC50 [2]: < 200 nM

B13: I-111 (peptide)
peptide: Ac-[PL3]D[tBuAla][B5]D[Phe(3-COOH)][Cha]AFK[PyrS2(4)][2F3MeF][Bta][GlnR]L-NH2
modifications: staple 1-4; bridge 10-14; reading uncertain; also: PyrS2 tied into a staple, partner not placed, printed as Ac-PL3-Asp-Npg-B5-Asp-3COOHF-Cha-Ala-Phe-Lys*3-PyrS2-2F3MeF-BztA-GlnR*3-Leu-NH2
IC50 [2]: < 200 nM

Continued, values first:

IC50 [2]: < 200 nM
B1: I-90 (peptide)
peptide: Ac-[PL3]D[tBuAla][B5]N[Phe(3-COOH)]QAFK[PyrS2″][3Thi][BztA][GlnR]A-NH2
modifications: staple 1-4 (inferred); bridge 10-14; not fully specified (residue 10, bridges); printed as Ac-PL3-Asp-Npg-B5-Asn-3COOHF-Gln-Ala-Phe-Lys*3-PyrS2-3Thi-BztA-GlnR*3-Ala-NH2; reading uncertain; also: Lys10 and GlnR14 marked *3

IC50 [2]: < 200 nM
B2: I-49 (peptide)
peptide: Ac-[αAllylPro]D[tBuAla][B5(4)]D[Phe(3-COOH)]KAFL[PyrS2(6)][3Thi][Bta]K-NH2
modifications: not fully specified (residues 6, 7, bridges); printed as Ac-PL3-Asp-Npg-B5-Asp-3COOHF-[Biphen33COOH]-Lys-Ala-Phe-Leu-PyrS2-3Thi-BztA-Lys-NH2

IC50 [2]: < 200 nM
B3: I-110 (peptide)
peptide: Ac-[PL3]D[tBuAla][B5]D[Phe(3-COOH)][Cha]AFK[PyrS2(4)][2F3MeF][Bta][GlnR]L-NH2
modifications: staple 1-4; bridge 10-14; reading uncertain; also: PyrS2 tied into a staple, partner not placed, printed as Ac-PL3-Asp-Npg-B5-Asp-3COOHF-Cha-Ala-Phe-Lys*3-PyrS2-2F3MeF-BztA-GlnR*3-Leu-NH2

IC50 [2]: < 200 nM
B4: I-109 (peptide)
peptide: Ac-[PL3]D[tBuAla][B5]D[Phe(3-COOH)][tBuAla]AFK[PyrS2(4)][2F3MeF][Bta][GlnR]L-NH2
modifications: staple 1-4; bridge 10-14; reading uncertain; also: PyrS2 tied into a staple, partner not placed, printed as Ac-PL3-Asp-Npg-B5-Asp-3COOHF-Npg-Ala-Phe-Lys*3-PyrS2-2F3MeF-BztA-GlnR*3-Leu-NH2

IC50 [2]: < 200 nM
B5: I-81 (peptide)
peptide: Ac-[PL3][hSer][tBuAla][B5]D[Phe(3-COOH)]AAFK[PyrS2″][3Thi][BztA][GlnR]A-NH2
modifications: staple 1-4 (inferred); bridge 10-14; not fully specified (residue 10, bridges); printed as Ac-PL3-Hse-Npg-B5-Asp-3COOHF-Ala-Ala-Phe-Lys*3-PyrS2-3Thi-BztA-GlnR*3-Ala-NH2; reading uncertain

IC50 [2]: < 200 nM
B6: I-54 (peptide)
peptide: Ac-[αAllylPro]D[tBuAla][B5(3)]D[Phe(3-COOH)]K(Biphen33COOH)AFL[PyrS2(3)][Phe(2-Cl)][Bta]K-NH2
modifications: not fully specified (residue 6, bridges); printed as Ac-PL3-Asp-Npg-B5-Asp-3COOHF-[Biphen33COOH]Lys-Ala-Phe-Leu-PyrS2-2ClF-BztA-Lys-NH2; reading uncertain

IC50 [2]: < 200 nM
B7: I-86 (peptide)
peptide: Ac-[PL3]D[tBuAla][B5]N[Phe(3-COOH)]SAFK[PyrS2″][3Thi][BztA][GlnR]A-NH2
modifications: staple 1-4 (inferred); bridge 10-14; not fully specified (residue 10, bridges); printed as Ac-PL3-Asp-Npg-B5-Asn-3COOHF-Ser-Ala-Phe-Lys*3-PyrS2-3Thi-BztA-GlnR*3-Ala-NH2; reading uncertain; also: Lys10 and GlnR14 marked *3

IC50 [2]: < 200 nM
B8: I-95 (peptide)
peptide: Ac-[αAllylPro]D[tBuAla][B5(4)]D[Phe(3-COOH)][GlnR]AFL[PyrS2″][2F3MeF(3)][BztA][GlnR](4mampiperidine)A-NH2
modifications: staple 1-4 (inferred); not fully specified (bridges); printed as Ac-PL3-Asp-Npg-B5-Asp-3COOHF-GlnR-Ala-Phe-Leu-PyrS2-2F3MeF-BztA-[4mampiperidine]GlnR-Ala-NH2; reading uncertain

IC50 [2]: < 200 nM
B9: I-114 (peptide)
peptide: Ac-[PL3]N[tBuAla][B5]D[TfeGA]AAFK[PyrS2(4)][2F3MeF][Bta][GlnR]A-NH2
modifications: staple 1-4; bridge 10-14; reading uncertain; also: PyrS2 tied into a staple, partner not placed
